Experimental data reported in the RNAGym collection of RNA variant scans (doi:10.7554/elife.80360).

B1: CPEB3 Ribozyme (parent)
chain: GGGGGCCACAGCAGAAGCGUUCACGUCGCGGCCCCUGUCAGAUUCUGGUGAAUCUGCGAAUUCUGCUGU

Variants of: B1
Assay: self-cleavage, relative activity (ratio to wild type); higher = more cleavage; co-transcriptional

Row | Variant | self-cleavage
1 | G14U A16C | 0.123
2 | G14U A16U | 0.363
3 | G14C U61G | 0.266
4 | G14C U61A | 0.346
5 | G14C U69G | 0.726
6 | G14C U69C | 0.968
7 | G14C C39A | 0.225
8 | G14C C39G | 0.248
9 | G14C C39U | 0.286
10 | G14A U44G | 0.64
11 | G14A U44C | 0.363
12 | G14A U44A | 0.538
13 | G14C G68A | 0.704
14 | G14C G68C | 0.607
15 | G14C G68U | 0.64
16 | G14C U46C | 0.48
17 | G14C U46G | 0.599
18 | G14C U46A | 0.651
19 | G14C G58A | 0.505
20 | G14C G56U | 0.236
21 | G14C G56C | 0.24
22 | G14A U62G | 0.605
23 | G14A U62A | 0.554
24 | G14A U62C | 0.338

Row | Variant | self-cleavage
25 | G14C A59U | 0.263
26 | G14C A59C | 0.262
27 | G14A U53C | 0.273
28 | G14A U55G | 0.172
29 | G14A U55C | 0.281
30 | G14A U38A | 0.478
31 | G14C G25C | 0.167
32 | G14C G25A | 0.142
33 | G14C G25U | 0.0786
34 | G14C C24U | 0.175
35 | G14C C35G | 0.191
36 | G14C C35U | 0.464
37 | G14C C27A | 0.146
38 | G14C C27U | 0.14
39 | G14C C27G | 0.159
40 | G14C G30A | 0.255
41 | G14C G41A | 0.16
42 | G14C G41C | 0.192
43 | G14C G41U | 0.231
44 | G14C C63A | 0.928
45 | G14C C63U | 0.862
46 | G14C U21C | 0.286
47 | G14C U21G | 0.11
48 | G14C U21A | 0.477

Row | Variant | self-cleavage
49 | G14C U64A | 0.432
50 | G14C U64C | 0.283
51 | G14C U64G | 0.546
52 | G14C G17A | 0.164
53 | G14C G17C | 0.119
54 | G14C U44A | 0.392
55 | G14C U44G | 0.39
56 | G14A U64G | 0.576
57 | G14A U64C | 0.346
58 | G14U A40G | 0.425
59 | G14U A40U | 0.179
60 | G14A U43C | 0.624
61 | G14A U43A | 0.306
62 | G14A U43G | 0.23
63 | G14C G19A | 0.136
64 | G14C G47U | 0.725
65 | G14C G47A | 0.729
66 | G14C C57U | 0.28
67 | G14C C57A | 0.325
68 | G14C A51C | 0.337
69 | G14C A51G | 0.666
70 | G14C C22G | 0.122
71 | G14C C22A | 0.142
72 | G14C C22U | 0.0705

Row | Variant | self-cleavage
73 | G14U A51C | 0.61
74 | G14U A51G | 0.842
75 | G14C U49A | 0.712
76 | G14C U49G | 0.689
77 | G14A U36C | 0.442
78 | G14A U36A | 0.0973
79 | G14C A23C | 0.555
80 | G14C A23U | 0.761
81 | G14C C54U | 0.544
82 | G14C C54G | 0.251
83 | G14A G58C | 0.674
84 | G14A G58U | 0.895
85 | G14A G58A | 0.703
86 | G14C U20C | 0.116
87 | G14C U20A | 0.102
88 | G14C U26G | 0.256
89 | G14C U26C | 0.327
90 | G14A U49C | 0.646
91 | G14C A52G | 0.57
92 | G14A U67A | 0.635
93 | G14A U67G | 0.682
94 | G14A U67C | 0.583
95 | G14A U20G | 0.124
96 | G14A U20A | 0.132

Row | Variant | self-cleavage
97 | G14C A15C | 0.166
98 | G14C A40C | 0.183
99 | G14C A40G | 0.324
100 | G14C C34A | 0.406
101 | G14C C34G | 0.236
102 | G14C U62G | 0.368
103 | G14C U62C | 0.352
104 | G14C U62A | 0.394
105 | G14A G68C | 0.756
106 | G14C C66A | 0.244
107 | G14C C66U | 0.358
108 | G14A G56U | 0.321
109 | G14A G56C | 0.261
110 | G14A U26A | 0.346
111 | G14C G48C | 0.677
112 | G14C G48A | 0.703
113 | G14C C33U | 0.636
114 | G14C C33G | 0.293
115 | G14C C33A | 0.413
116 | G14C G28A | 0.154
117 | G14C G28C | 0.154
118 | G14C G28U | 0.148
119 | G14C U67C | 0.443
120 | G14C U67G | 0.549

Row | Variant | self-cleavage
121 | G14C U67A | 0.468
122 | G14C C29U | 0.163
123 | G14C C29G | 0.172
124 | G14C C29A | 0.0734
125 | G14C U36A | 0.109
126 | G14C U36G | 0.19
127 | G14C U36C | 0.37
128 | G14C C18G | 0.101
129 | G14C A16U | 0.28
130 | G14C A16G | 0.353
131 | G14C A16C | 0.143
132 | G14C C32A | 0.25
133 | G14C C32G | 0.193
134 | G14U A15G | 0.843
135 | G14C G31C | 0.167
136 | G14C G31A | 0.228
137 | G14C G31U | 0.179
138 | G14C C45G | 0.468
139 | G14C C45A | 0.406
140 | G14C C45U | 0.562
141 | G14A G65U | 0.3
142 | G14A G65C | 0.311
143 | G14C A42G | 0.266
144 | G14C A42C | 0.331

Row | Variant | self-cleavage
145 | G14C A42U | 0.228
146 | G14C G37U | 0.183
147 | G14C G37A | 0.151
148 | G14C G37C | 0.127
149 | G14C A60G | 0.265
150 | G14C U43G | 0.246
151 | G14C G50U | 0.618
152 | G14C G50A | 0.613
153 | G14C G50C | 0.405
154 | G14C U55A | 0.22
155 | G14C U55C | 0.271
156 | G14U A42C | 0.523
157 | G14U A42U | 0.425
158 | G14C U38G | 0.157
159 | G14C U53G | 0.397
160 | G14A U61A | 0.357
161 | G14C G65C | 0.231
162 | G14C G65A | 0.291
163 | G14A U46G | 0.844
164 | G14A U46C | 0.709
165 | G14U A23C | 0.7
166 | G14U A23G | 0.452
167 | G14U A23U | 0.986
